Results on four molecules are retold here after publication PMC9892492, “Bioconversion of 4-hydroxyestradiol by extradiol ring-cleavage dioxygenases from Novosphingobium sp. PP1Y” (Scientific Reports, 2023).

The Km is the concentration of substrate that gives half-maximal velocity. Usually kcat stands for the number of substrate molecules converted per active site and unit of time at saturation. In general, kcat/Km refers to the turnover number divided by the Michaelis constant.

What all share (experiment): purified protein
Holding throughout (conditions): 50 mM Tris/HCl pH 7.5, 25 °C, O2 co-substrate, Fe(II) enzyme

The test system of one data set is Oc1cccc(-c2ccccc2)c1O.
For data set [1], the system named is [H][C@@]12CCc3c(ccc(O)c3O)[C@@]1([H])CC[C@]1(C)[C@@H](O)CC[C@@]21[H].
The test system of the next data set is T1, Cc1cccc(O)c1O.
T1 construct: full ORF in pET22b(+), E. coli BL21(DE3); Q Sepharose column purified, contaminated; no tag mentioned
The class given is biochemical, Novosphingobium sp. PP1Y.

Substrate in data set [2]: Oc1cccc(-c2ccccc2)c1O
This is another data set of the same source.

Substrate in data set [3]: Cc1ccc(O)c(O)c1
The data set is classed as biochemical, Novosphingobium sp. PP1Y.

Substrate in data set [4]: Oc1ccccc1O
The class given is biochemical, Novosphingobium sp. PP1Y.

Substrate in data set [5]: Cc1cccc(O)c1O
The data set is classed as biochemical, Novosphingobium sp. PP1Y.

Substrate in data set [6]: [H][C@@]12CCc3c(ccc(O)c3O)[C@@]1([H])CC[C@]1(C)[C@@H](O)CC[C@@]21[H]
The data set is classed as biochemical, Novosphingobium sp. PP1Y.

PP28735 (Novosphingobium sp. PP1Y): in the data set on Oc1cccc(-c2ccccc2)c1O, the Km was 67.90 µM, the catalytic constant (kcat) worked out at 18.6 s⁻¹ and the kcat/Km was 270000 M⁻¹ s⁻¹. Besides, in data set [1], the Km is on record as 1.90 µM, the kcat is 38.2 s⁻¹ and the catalytic efficiency (kcat/Km) stood at 2.01e+07 M⁻¹ s⁻¹. For the same molecule, in the data set on Cc1cccc(O)c1O, the Km is given as 451 µM, the catalytic constant (kcat) is 1.47 s⁻¹ and the specificity constant (kcat/Km) turned out to be 3300 M⁻¹ s⁻¹.

B1: PP00193 (Novosphingobium sp. PP1Y) (protein)
chain: MALTGVLRPGYVQLRVLDLDEAIQHYRDRIGLNLVSVEDGRAFFQAFDEFDRHSIILREADSAGLDRMAFKVAKDADLDHFAERLLDMGVHVDIIPAGEDPGVGRKIRFNTPTAHVFDLYAEMELSETGPAVRNPDVWIAEPRGMRATRFDHCALNGVDISASAKIFVEALDFSVTEELVDEASGTRLGIFLSCSNKAHDVAFLGYPEDGRIHHTSFNLESWHDVGHAADIISRYDISLDIGPTRHGITRGQTIYFFDPSGNRNETFSGGYTYYPDNPRRMWQAENAGKAIFYYEKALNDRFMTVNT
notes: full ORF in pET22b(+), E. coli BL21(DE3); Q-Sepharose batch purified; no tag mentioned
For B1, the Km in the data set “purified protein [2]” is 3.15 µM; in the data set “purified protein [3]”, 1.89 µM; in “purified protein [4]”, 1.69 µM; in the data set “purified protein [5]”, 3.17 µM. The kcat came out at 30.5 s⁻¹ in the data set “purified protein [2]”, 120 s⁻¹ in “purified protein [3]”, 194 s⁻¹ in the data set “purified protein [4]” and 225 s⁻¹ in the data set “purified protein [5]”. The kcat/Km was 9.7e+06 M⁻¹ s⁻¹ in “purified protein [2]”, 6.35e+07 M⁻¹ s⁻¹ in “purified protein [3]”, 1.15e+08 M⁻¹ s⁻¹ in “purified protein [4]” and 7.09e+07 M⁻¹ s⁻¹ in “purified protein [5]”.

B2: PP26077 (Novosphingobium sp. PP1Y) (protein)
chain: MGIKALGYVVVETAKPEEWNTFLTQFAGAMRAPDAADGAALYRVDDRVFRFRIEAGTREWFVAAGYELTDRAALDALAVRIGDAARPVEWADANEAAGRGAEAMFRTSDPAGNGLEFYCGDARSDKPFVSPIGVPEFLTGDLGMGHAVFSAPDFEETIAFHRDVVGFHETDMPRFHLMGPDAPSMGFAFLHADNGRHHSIAFGEGPVPPSGAVHIMLELPDLIEVGKAHDRMKRFGYPESATLGRHVNDETTGFYVQTPSGFDLEIGCDSLIIDPASWEVTKHEGISVWGHEWAWQKALKEQQEQEKGA
notes: as for B1
Regarding B2, in “purified protein [2]”, the Michaelis constant (Km) is 35.20 µM, the kcat came to 8.9 s⁻¹ and the kcat/Km is 250000 M⁻¹ s⁻¹. In addition, in the data set “purified protein [5]”, the Michaelis-Menten constant (Km) amounted to 2600 µM, the turnover number (kcat) was 3 s⁻¹ and the kcat/Km amounted to 1200 M⁻¹ s⁻¹.

B3: PP00124 (Novosphingobium sp. PP1Y) (protein)
chain: MVAVTELGYLGLTVTDLDAWRSYAAEVAGMEIVDEGEGDCLYLRMDQWHHRIALHAGDTDDLAYLGWRVAGPVEFDAMVAQLAAAGIAVEVASEAEARERRVLGLAKLADPGGNPTEIFYAPQVDTHKPFHPGRPMFGRFLTGSEGIGHCILRQDDVAAAAAFYGLLGLRGSVEYHLQLPNGMVAQPYFMHCNERQHSIAFGLGPMEKRINHLMFEYTDLDDLGLAHDIVRARKIDVALQLGKHANDQALTFYCANPSGWLWEFGWGARKAPSQQEYYTRDIFGHGNEAAGYGMDIPLG
notes: as for B1
Turning to B3, the Km in “purified protein [2]” came to 3.70 µM; in “purified protein [3]”, 1.80 µM; in “purified protein [4]”, 38.20 µM; in the data set “purified protein [6]”, 0.75 µM; in “purified protein [5]”, 2.90 µM. The kcat was determined as 13.8 s⁻¹ in the data set “purified protein [2]”; 2.97 s⁻¹ in “purified protein [3]”; 5.44 s⁻¹ in the data set “purified protein [4]”; 8.6 s⁻¹ in “purified protein [6]”; 10.2 s⁻¹ in “purified protein [5]”. Besides, the specificity constant (kcat/Km) in the data set “purified protein [2]” is 3.72e+06 M⁻¹ s⁻¹; in the data set “purified protein [3]”, 1.65e+06 M⁻¹ s⁻¹; in “purified protein [4]”, 140000 M⁻¹ s⁻¹; in “purified protein [6]”, 1.14e+07 M⁻¹ s⁻¹; in the data set “purified protein [5]” it was 3.53e+06 M⁻¹ s⁻¹.
